Assay: Fluorescence of the intact dual-labeled conjugate versus singly labeled counterpart
Type: physicochemical
Text: SEQ ID NO. 1 Val-Pro-Arg-Gly-Lys was synthesized by GeneMed Biotechnologies (South San Francisco, Calif.) and purified on reverse phase high performance liquid chromatography (HPLC). Its chemical identity was confirmed by Fast Atom Bombardment (FAB) mass spectroscopy and amino acid analysis. The peptide was reacted overnight with tetramethylrhodamine succimidyl ester in 0.1M sodium bicarbonate, pH 8.3. The reaction mixture was purified on reversed phase HPLC (C-18 column, particle size 15 μm, Waters Corp., Milford, Mass.). All chemically reactive dyes were purchased from Molecular Probes, Eugene, Oreg. The dye-peptide conjugate had the chemical structure of SEQ ID NO. 2 TMR-Val-Pro-Arg-Gly-Lys-TMR (designated T-VPRGK-T in FIG. 2) as shown in Formula I, below. A composite gradient of acetonitrile (ACN) in water was used to purify this conjugate. In a typical elution, the acetonitrile content was increased from 15% to 30% during the initial 15 minutes, followed by a 10-minute isocratic elution at 30% ACN, a 5-minute gradient to 50%, then 5-minute isocratic elution at 50% ACN. All solvents contained 0.1% trifluoroacetic acid. The molecular weight of the purified conjugate, determined by FAB mass spectroscopy, was 1379 which was the calculated molecular mass based on the elemental composition of C74H85N13O14.

Substance: TMR-Val-Pro-Arg-Gly-Lys-TMR (XPRGX; not fully specified; TMR dye at both ends) [T-VPRGK-T]
- fluorescence of dual-labeled conjugate versus singly labeled counterpart: substantially lower fluorescence than its singly labeled counterpart

From patent US7256012B2, “Fluorogenic protease substrates based on dye-dimerization” (3M Innovative Properties Company, priority 1997, dated 2007)
